In patent US9765346B2, “Biological methods for preparing a fatty dicarboxylic acid” (Verdezyne, Inc., priority 2011, dated 2017):

Biological target: T1, Pox5 (Candida tropicalis, UniProt P08790)
T1 construct: made in house; host or cells: E. coli Rosetta II BL21, pET26b; crude cell lysate (10 ug per reaction)
Type: biochemical, Candida strain ATCC20336
Method: To express an enzyme, a colony from each transformation of Rosetta cells was used to start a 5 ml overnight culture of LB containing the antibiotics kanamycin (to select for pET26b) and chloramphenicol (to select for a second plasmid found in Rosetta II cells that mediates improved translation of eukaryotic proteins expressed in E. coli) grown at 37° C. The next morning, the overnight culture was used to seed 30 ml of LB containing kanamycin and chloramphenicol to an OD600 reading of 0.1. The 30 ml cultures were grown at 37° C. for 2 hours and then placed on ice for 10 minutes. To induce expression, isopropyl-beta-D-thiogalactopyranoside (IPTG) was added to the culture to a final concentration of 0.1 mM. In some cases induction was performed using Novagen Overnight Express Autoinduction System 1 (CAT#71300-3). The cells were then shaken at 15° C. overnight to express the acyl CoA oxidase.
To test the activity of the acyl CoA oxidase, cells from the overnight induction were pelleted at 1046×g at 4° C. in 50 ml conical tubes. The cell pellets were resuspended in 1 ml of 50 mM KPO4, pH 7.6, 50 μM FAD buffer and then transferred to a 2 ml centrifuge tube. A Misonix Sonicator 3000 (QSonica, Newtown, Conn.) was used to lyse the cells, which were sonicated at a power setting of 2 for 2 pulses of 20 seconds each. The lysates were placed on ice for 30 seconds in between each pulse. To obtain a supernatant, cell debris was pelleted at […] for 10 mins in a 4° C. microcentrifuge. The supernatant was transferred to a 1.5 ml centrifuge tube and Bradford assays (Thermoscientific) were performed on cell lysates according to manufacturer's specifications to determine protein concentration in preparation for the acyl-CoA oxidase assays. A Beckman Coulter DTX-800 Multimode Detector spectrophotometer was used for the assays. The spectrophotometer was set to read for 5 minutes at 500 nm, 30° C. Each reaction was 200 μl in volume and contained 10 μg of cell lysate in 50 mM KPO4, pH 7.6, […] BSA, 0.05% Triton X-100, 250 μM fatty acyl-coA substrate, 50 μM FAD, 10 U horseradish peroxidase, 25 mM p-hydroxybenzoic acid and 1 mM 4-aminoantipyrine. Fatty acyl-CoA substrates covered a range from hexanoyl CoA (six carbon chain length) to oleoyl CoA (eighteen carbon chain length).
Pox4 and Pox5 from Candida strain ATCC20336 were cloned into pET26b for expression in E. coli and assayed for acyl CoA oxidase activity in vitro. The activity profiles of the genetically modified Pox4 and Pox5 were compared to the activity profile of the wild type enzymes. To alter their substrate activity profile, site directed mutagenesis was performed on several locations in Pox4 and Pox5. Complementary primers encoding the point mutation(s) were used to amplify the coding sequences of Pox4 or Pox5 generating two to four PCR products that were then “stitched” together to regenerate the entire coding region using overlap extension PCR (FIG. 22). […] PCR was performed using oligonucleotides A and B to produce a product with overlap to a PCR product generated using oligonucleotides C and D. The A-B product was used as a primer for the C-D product, and vice versa, for overlap extension. Several mutagenic primer pairs, for example, like the B-C primer pair, were used to produce mutations at different locations that were “stitched” together, i.e. A-B, C-D, E-F, etc. to generate an intact, full length coding region. […]

[1] = wild type, expressed in E. coli

Pox5: native acyl-CoA oxidase isozyme of Candida strain ATCC20336
activity on C6 and C8 substrates (FIG. 21, wild type): low activity | activity on substrates below C10 (FIG. 21, wild type): decrease in activity | substrate specificity (native isozyme): narrow substrate specificity | activity on a C6 substrate [1]: not very active | substrates on which active [1]: C8 all the way to C18:1
